Earlier results on 1 substance are cited in paper PMC5606850.

For the series, the target named is HTLV-1 nucleocapsid NTD (Human T-cell leukemia virus type 1) (UniProt P03345).
Chain of HTLV-1 nucleocapsid NTD (Human T-cell leukemia virus type 1) (P03345 345-395): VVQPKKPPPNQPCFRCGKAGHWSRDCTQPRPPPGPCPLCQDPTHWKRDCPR

Chain of HTLV-1 nucleocapsid CTD (P03345 396-429): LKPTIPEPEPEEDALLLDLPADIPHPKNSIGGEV

Regarding “HTLV-1 nucleocapsid CTD (from UniProt P03345)”, the Kd – broadly, the concentration at which binding is half-saturated – is 0.2 µM.
